Common to all, as to experiment: ELISA
For experiment [1], the target named is T1, hPD-L1-hIGg1Fc (SinoBiological) (human, UniProt Q9NZQ7 19-238).
In experiment [2] the target is T1, hPD-L1-hIGg1Fc (SinoBiological). This is another data set of the same source.
For experiment [3] the target is unchanged. This is another data set of the same source.
Experiment [4] shares this target. The source holds these as a separate data set.

Read-outs that look alike come from different tables or passages of the source.

T1 sequence (Q9NZQ7 19-238): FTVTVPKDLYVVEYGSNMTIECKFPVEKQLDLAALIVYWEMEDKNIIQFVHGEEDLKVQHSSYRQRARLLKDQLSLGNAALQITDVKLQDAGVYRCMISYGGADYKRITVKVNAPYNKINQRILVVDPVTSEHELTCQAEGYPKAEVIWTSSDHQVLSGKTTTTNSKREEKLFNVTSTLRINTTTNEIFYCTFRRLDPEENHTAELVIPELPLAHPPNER

B1: aPD-L1 (antibody, V domains shown)
VH: EVQLLESGGGLVQPGGSLSLSCAASGFSFSSGYDMCWVRQAPGKGLEWIACIAAGSAGITYDANWAKGRFTISRDNSKNTLYLQMNSLRAEDTAVYYCARSAFSFDYAMDLWGQGTLVTVSS
VL: DIQMTQSPSTLSASVGDRVTITCQASQSISSHLNWYQQKPGKAPKLLIYKASTLASGVPSRFSGSGSGTEFTLTISSLQPDDFATYYCQQGYSWGNVDNVFGGGTKVTVL
By EC50 is commonly meant the concentration at which the effect is half-maximal. As to B1, the EC50 in experiment [1] and in experiment [2] was 0.068 nM each time.

B2: PD-1m-aEGFRL (bispecific antibody)
heavy: QVQLQESGPGLVKPSETLSLTCTVSGGSVSSGDYYWTWIRQSPGKGLEWIGHIYYSGNTNYNPSLKSRLTISIDTSKTQFSLKLSSVTAADTAIYYCVRDRVTGAFDIWGQGTMVTVSSASTKGPSVFPLAPSSKSTSGGTAALGCLVKDYFPEPVTVSWNSGALTSGVHTFPAVLQSSGLYSLSSVVTVPSSSLGTQTYICNVNHKPSNTKVDKKVEPKSCDKTHTCPPCPAPPVAGPSVFLFPPKPKDTLMISRTPEVTCVVVDVSHEDPEVKFNWYVDGVEVHNAKTKPREEQYNSTYRVVSVLTVLHQDWLNGKEYKCKVSNKGLPSSIEKTISKAKGQPREPQVYTLPPSRDELTKNQVSLTCLVKGFYPSDIAVEWESNGQPENNYKTTPPVLDSDGSFFLYSKLTVDKSRWQQGNVFSCSVMHEALHNHYTQKSLSLSPGK
light: not shown
On to B2, for which, in experiment [3], a half-maximal effect (EC50) was put at 0.0394 nM.

B3: PD-1-aEGFRL (bispecific antibody)
heavy: B2 heavy
light: not shown
In turn, B3 returned a half-maximal effective concentration (EC50) in experiment [3] of 1.54 nM.

B4: PD-1m-aGPC-3L (bispecific antibody)
heavy: QVQLVQSGAEVKKPGASVKVSCKASGYTFTDYEMHWVRQAPGQGLEWMGALDPKTGDTAYSQKFKGRVTLTADKSTSTAYMELSSLTSEDTAVYYCTRFYSYTYWGQGTLVTVSSASTKGPSVFPLAPSSKSTSGGTAALGCLVKDYFPEPVTVSWNSGALTSGVHTFPAVLQSSGLYSLSSVVTVPSSSLGTQTYICNVNHKPSNTKVDKKVEPKSCDKTHTCPPCPAPPVAGPSVFLFPPKPKDTLMISRTPEVTCVVVDVSHEDPEVKFNWYVDGVEVHNAKTKPREEQYNSTYRVVSVLTVLHQDWLNGKEYKCKVSNKGLPSSIEKTISKAKGQPREPQVYTLPPSRDELTKNQVSLTCLVKGFYPSDIAVEWESNGQPENNYKTTPPVLDSDGSFFLYSKLTVDKSRWQQGNVFSCSVMHEALHNHYTQKSLSLSPGK
light: LDSPDRPWNPPTFSPALLVVTEGDNATFTCSFSNTSESFVLNWYRMSPSNQTDKLAAFPEDRSQPGQDSRFRVTQLPNGRDFHMSVVRARRNDSGTYLCGAISLAPKVQIKESLRAELRVTERRAEVPTAHPSPSPRPAGQFQGGGGSGGGGSGGGGSGDVVMTQSPLSLPVTPGEPASISCRSSQSLVHSNRNTYLHWYLQKPGQSPQLLIYKVSNRFSGVPDRFSGSGSGTDFTLKISRVEAEDVGVYYCSQNTHVPPTFGQGTKLEIKRTVAAPSVFIFPPSDEQLKSGTASVVCLLNNFYPREAKVQWKVDNALQSGNSQESVTEQDSKDSTYSLSSTLTLSKADYEKHKVYACEVTHQGLSSPVTKSFNRGEC
B4 gave an EC50 in experiment [4] of 0.0258 nM.

Values taken from patent US20230287081A1 (published 2023).
